We go through two molecules from publication PMC6058054, “Mining the Genome of Streptomyces leeuwenhoekii: Two New Type I Baeyer–Villiger Monooxygenases From Atacama Desert” (Frontiers in Microbiology, 2018).

The target of data set [1] is T1, Sle_13190 (Streptomyces leeuwenhoekii, UniProt A0A0F7VUW7).
T1 construct: full-length, fused to N-terminal His-tagged phosphite dehydrogenase (PTDH) in pCRE2, fusion kept; expressed in E. coli NEB 10-beta; FAD flavoprotein
As to the kind of experiment: UV-vis spectrum of purified flavoprotein; FAD quantified after SDS unfolding. Type of data set: binding. To be noted: co-purified FAD.

Data set [2] has as its target T2, Sle_62070 (Streptomyces leeuwenhoekii, UniProt A0A0F7W6X7).
T2 construct: full-length, fused to N-terminal His-tagged phosphite dehydrogenase (PTDH) in pCRE2, fusion kept; expressed in E. coli NEB 10-beta; FAD flavoprotein
The description is as above. The format is binding. To be noted: co-purified FAD.

Substrate in data set [3]: O=C1CC2C=CCC12
As to the kind of experiment: purified protein. Type of data set: biochemical, Streptomyces leeuwenhoekii. To be noted: 150 uM NADPH, 10 uM FAD, 50 mM Tris-HCl pH 8.0, 10% glycerol, 100 mM NaCl, 2.5% 1,4-dioxane, 25 C.

Substrate in data set [4]: O=C1CCCCC1c1ccccc1
As to the kind of experiment: purified protein. The format is biochemical, Streptomyces leeuwenhoekii. To be noted: 150 uM NADPH, 10 uM FAD, 50 mM Tris-HCl pH 8.0, 10% glycerol, 100 mM NaCl, 2.5% 1,4-dioxane, 25 C.

Substrate in data set [5]: O=C1CCC(c2ccccc2)CC1
As to the kind of experiment: purified protein. Type of data set: biochemical, Streptomyces leeuwenhoekii. To be noted: 150 uM NADPH, 10 uM FAD, 50 mM Tris-HCl pH 8.0, 10% glycerol, 100 mM NaCl, 2.5% 1,4-dioxane, 25 C.

Substrate in data set [6]: CC(=O)Cc1ccccc1
As to the kind of experiment: purified protein. To be noted: 150 uM NADPH, 10 uM FAD, 50 mM Tris-HCl pH 8.0, 10% glycerol, 100 mM NaCl, 2.5% 1,4-dioxane, 25 C.

For the molecule `Cc1cc2nc3c(=O)[nH]c(=O)nc-3n(C[C@H](O)[C@H](O)[C@H](O)COP(=O)(O)OP(=O)(O)OC[C@H]3O[C@@H](n4cnc5c(N)ncnc54)[C@H](O)[C@@H]3O)c2cc1C` [FAD], the “UV-vis spectrum of purified flavoprotein; FAD quantified after SDS unfolding” value in data set [1] was “a clear yellow color was indicative of proper folding and FAD binding”; in data set [2], “a clear yellow color was indicative of proper folding and FAD binding”.

B1: Sle_62070 (Streptomyces leeuwenhoekii) (protein)
chain: MTQGQTLSPEELAGLRERYRLERERRVRPDGTRQYLAADAEFGYYAEDPYAGEPPEREPLRDRVDVAVVGGGFGGILAGARLRRRGVRRVRVIEKGGDFGGTWYWNRYPGIHCDIESHVYLPLLDETGYVPEWKYAPGEEIRRHAVRIAEKFDLYADAQFSTAVTSLTWDEETRAWVVATDRGDEFRATYVITATGTLSELKLPGIPGIETFEGHTFHTSRWDYAYTGGTPDGGLTGLADKRVGVVGTGATGIQVIPKLAEDAGHLYVFQRTPSSVDVRANRRTTPQDVGADRDGWARERRDNFLRIVSGETAEEDLVADQWTASAGLLEKLVPSFRRQGDRTAFEAAYEVADAAKMNEIRARVERIVTDRDTAEKLKPWYRYACKRPTFSDTYLQAFNRDNVTLVDTADTHGIERMTERGVVVGGTEYALDCLIFATGFSVGVSGVHSGRLPVRGRGGVQLLDAWRKEGPRTLHGFTSNGFPNLIQMGTVQNASSVNYTHVLDEQAVHAAALVAAAEAKGAVIEPSREAEDAWIAVLAEDAPDHEWFHAECTPGYYNAEGRGRAKGPTAYPHGASAFHELLRRWREESMDGILRAGTPVRGPGGSTVS
notes: full-length, fused to N-terminal His-tagged phosphite dehydrogenase (PTDH) in pCRE2, fusion kept; expressed in E. coli NEB 10-beta; FAD flavoprotein
With B1, the Km in data set [3] stood at 200 ± 10 µM; in data set [6], 3000 ± 300 µM. The kcat in data set [3] was 4 ± 0.06 s⁻¹; in data set [4], above 4 s⁻¹; in data set [5], above 4 s⁻¹; in data set [6] it was 4.1 s⁻¹. The kcat/Km in data set [3] was 20000 M⁻¹ s⁻¹; in data set [4], 1300 M⁻¹ s⁻¹; in data set [5], 1300 M⁻¹ s⁻¹; in data set [6], 1300 M⁻¹ s⁻¹.
